Legend:
Collagen type I [1] = target: Collagen type I (UniProt P02452); experiment: SPR; collagen I immobilised by amine coupling on a CM3 chip (about 1500 RU); Slr or M1 diluted 2-fold from 500 nM, 35 µl/min, in 10 mM HEPES, 150 mM NaCl, 0.005% Surfactant P20, pH 7.5; BIAcore 2000; 1:1 Langmuir fit
Collagen type I [2] = target: T1, Collagen type I (UniProt P02452 162-1218; P08123 80-1119); experiment: as above; details: both partners purified
T1 construct: collagen I alpha1 chain (printed as the α1 chain, 134 kDa); collagen I alpha2 chain (printed as the α2 chain, 130 kDa); Used non-denatured, denatured with 4 M guanidine hydrochloride, monomeric and fibrillar; also called collagen I; monomeric collagen I; source: bought: Sigma
T1 sequence (P02452 162-1218, chain 1 of 2): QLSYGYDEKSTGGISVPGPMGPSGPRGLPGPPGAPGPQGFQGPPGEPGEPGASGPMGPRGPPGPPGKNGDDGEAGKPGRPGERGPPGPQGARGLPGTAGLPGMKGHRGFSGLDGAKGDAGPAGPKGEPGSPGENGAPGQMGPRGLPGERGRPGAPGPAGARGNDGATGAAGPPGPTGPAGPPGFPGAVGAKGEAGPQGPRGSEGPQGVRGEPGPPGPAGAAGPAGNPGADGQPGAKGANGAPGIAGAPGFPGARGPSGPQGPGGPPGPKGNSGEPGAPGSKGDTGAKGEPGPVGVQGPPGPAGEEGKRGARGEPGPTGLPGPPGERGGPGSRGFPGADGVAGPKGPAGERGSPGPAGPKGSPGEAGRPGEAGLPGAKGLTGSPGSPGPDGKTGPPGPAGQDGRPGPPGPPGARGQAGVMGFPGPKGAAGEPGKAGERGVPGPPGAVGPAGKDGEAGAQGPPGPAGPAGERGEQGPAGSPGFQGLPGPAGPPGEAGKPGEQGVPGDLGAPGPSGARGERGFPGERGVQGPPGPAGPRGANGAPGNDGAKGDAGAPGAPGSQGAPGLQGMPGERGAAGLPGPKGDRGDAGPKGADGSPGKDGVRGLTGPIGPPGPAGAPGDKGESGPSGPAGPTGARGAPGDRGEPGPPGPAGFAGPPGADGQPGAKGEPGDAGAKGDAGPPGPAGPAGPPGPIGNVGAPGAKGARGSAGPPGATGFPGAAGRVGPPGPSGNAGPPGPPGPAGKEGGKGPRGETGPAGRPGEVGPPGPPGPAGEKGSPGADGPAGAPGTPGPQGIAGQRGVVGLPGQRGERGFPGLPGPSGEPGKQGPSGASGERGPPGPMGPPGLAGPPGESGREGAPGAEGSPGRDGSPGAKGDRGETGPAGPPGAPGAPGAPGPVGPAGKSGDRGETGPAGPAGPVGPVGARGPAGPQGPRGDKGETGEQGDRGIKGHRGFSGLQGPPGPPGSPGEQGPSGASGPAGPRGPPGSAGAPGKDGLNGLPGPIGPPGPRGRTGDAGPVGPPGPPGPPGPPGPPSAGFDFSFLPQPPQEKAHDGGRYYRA
T1 sequence (P08123 80-1119, chain 2 of 2): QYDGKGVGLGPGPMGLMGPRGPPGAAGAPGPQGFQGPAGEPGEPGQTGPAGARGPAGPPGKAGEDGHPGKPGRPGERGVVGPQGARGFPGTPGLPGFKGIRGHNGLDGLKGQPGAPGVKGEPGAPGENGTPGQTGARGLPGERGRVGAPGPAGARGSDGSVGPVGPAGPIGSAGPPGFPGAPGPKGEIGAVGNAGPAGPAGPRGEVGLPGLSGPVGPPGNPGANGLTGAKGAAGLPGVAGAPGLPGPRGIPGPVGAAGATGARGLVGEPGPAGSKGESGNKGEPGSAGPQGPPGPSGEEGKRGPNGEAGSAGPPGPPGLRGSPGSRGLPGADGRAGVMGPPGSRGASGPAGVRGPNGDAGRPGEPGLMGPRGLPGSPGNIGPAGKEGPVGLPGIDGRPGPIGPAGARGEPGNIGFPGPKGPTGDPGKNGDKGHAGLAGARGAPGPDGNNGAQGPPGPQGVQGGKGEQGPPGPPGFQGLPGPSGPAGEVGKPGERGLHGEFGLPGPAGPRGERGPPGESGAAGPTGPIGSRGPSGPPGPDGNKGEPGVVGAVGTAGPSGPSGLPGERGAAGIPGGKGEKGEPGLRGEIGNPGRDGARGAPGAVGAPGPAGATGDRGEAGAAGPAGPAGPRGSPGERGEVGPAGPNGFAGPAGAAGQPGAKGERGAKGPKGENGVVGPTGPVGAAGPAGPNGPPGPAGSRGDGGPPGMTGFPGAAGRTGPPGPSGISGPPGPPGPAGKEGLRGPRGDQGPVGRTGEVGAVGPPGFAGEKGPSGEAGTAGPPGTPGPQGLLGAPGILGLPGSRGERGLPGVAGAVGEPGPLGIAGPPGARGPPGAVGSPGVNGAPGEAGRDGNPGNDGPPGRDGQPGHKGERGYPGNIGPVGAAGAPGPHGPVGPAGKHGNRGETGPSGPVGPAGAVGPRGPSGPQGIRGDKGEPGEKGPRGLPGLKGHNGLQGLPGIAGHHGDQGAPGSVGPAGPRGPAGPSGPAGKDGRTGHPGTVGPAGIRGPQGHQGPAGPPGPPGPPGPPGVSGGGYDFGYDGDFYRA

Sequence of Collagen type I (UniProt P02452) (P02452 162-1218, chain 1 of 2): as the sequence (P02452 162-1218, chain 1 of 2) above
Sequence of Collagen type I (UniProt P02452) (P08123 80-1119, chain 2 of 2, further chain): as the sequence (P08123 80-1119, chain 2 of 2) above

In the case of “streptococcal leucine rich (Slr) protein, recombinant, GST tag removed (from UniProt F8THZ1 1-792) (natural protein)”, the Kd (Collagen type I [1]) is reported as 12 nM.

B1: M1 protein from Streptococcus pyogenes, purified from culture supernatants of strain MC25 (natural protein)
chain: NGDGNPREVIEDLAANNPAIQNIRLRYENKDLKARLENAMEVAGRDFKRAEELEKAKQALEDQRKDLETKLKELQQDYDLAKESTSWDRQRLEKELEEKKEALELAIDQASRDYHRATALEKELEEKKKALELAIDQASQDYNRANVLEKELETITREQEINRNLLGNAKLELDQLSSEKEQLTIEKAKLEEEKQISDASRQSLRRDLDASREAKKQVEKDLANLTAELDKVKEDKQISDASRQGLRRDLDASREAKKQVEKDLANLTAELDKVKEEKQISDASRQGLRRDLDASREAKKQVEKALEEANSKLAALEKLNKELEESKKLTEKEKAELQAKLEAEAKALKEQLAKQAEELAKLRAGKASDSQTPDTKPGNKAVPGKGQAPQAGTKPNQNKAPMKETKRQLPST
In the case of B1, the Kd (Collagen type I [2]) is reported as 54 nM.
